Source: the domain aggregation screens of Martell et al. (2025)

Assay: soluble fraction after stress (log2 fold change); higher = more stays soluble; pooled small domains, quantitative proteomics
Settings: stress: pH 4
How it was run: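 Values are on a log2 scale, where higher means more of the domain stayed soluble after pH 4 stress. They are fold changes in the soluble amount of each domain from pooled custom libraries, measured by high-throughput quantitative proteomics. The fold change is taken to reflect aggregation propensity.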

HMRDPFDALSARERAVASLVQRGLRNKEVASELGLTEGTVKVHLHKVFDKLGIRGRTELILLAQER
soluble fraction (log2): -0.397

HMTSRIHDYWTSPGQPGYAKIGWGTAGDFRRAKALIGEKIAANSPEDMRYLNQIIAQWHFDALGYWPGDH
soluble fraction (log2): -1.08

HMGMIRFSKEEQMLMMLYSPGSRLGLIAELESMKLQLNSRERKLRNLAESVLKKLEQITDEEFMQFDF
soluble fraction (log2): -1.11

HMGNFGDLLKILLDEKELSMGELSKKSGIDKSTISRIANNKQKPNINHLEKMAIHLNINLEELLKASGYEF
soluble fraction (log2): -0.857

HMATEVEVPDVVGRQMALATQLLEARKLRVNVAEIYDEKTPPGQVVSQSPEAGSSVKEERVVTIYVSR
soluble fraction (log2): 0.158

HMSEFSDRFRLLKDESGATLKELSEQLDITVPNLSYYMKGREPSYDILIKIADYFGVTTDWLIGRTDER
soluble fraction (log2): -0.643

HMRHRITEKDKQFRIGQQVWHSEYGKGMVLSVDGIGSSARLTVSFVSGKLAKIIGTFVSTEP
soluble fraction (log2): -0.982

HMAGPAGASEVANARDGDDETPLHMAARGGYPGIVRMLLAAGAKADAKSAAGLFPWNYAEDGSELHALLPR
soluble fraction (log2): -0.0731

HMVETVQVVGAGQDIMPGSRINYSSLHYITVPRSYFHEDMFAKNNLVVGRIARAYVAKGEPLLAASLMPK
soluble fraction (log2): 0.17

HMSPIPLPVERAIHKLGSDISLARRRRHISQASLAERMGASLSTVRRMEKGDVRVPIHFFARALHVFG
soluble fraction (log2): 0.158

HMTDVHFIDVPVSEGHPWIGLTVKDLNLPPGTLLVFLNHPGEKSTVPNGDTVLREGDVLVLGATAYAG
soluble fraction (log2): -1.02

HMEWNPEKQHLLENYITNYSRQLNDTGLFYKNLDWNYIFNLVGVDDQEFLMLKIDEIYDESINVY
soluble fraction (log2): -1.63

HMLKHNLLSELSRIEGVGAVKRKALMDKFGTVENIKRASEEELSEVAGIGPTLARTIKEQMNKDE
soluble fraction (log2): -0.2

HMDGMNEELYQKFFALVGNPDEGKRISQAKAAQALGYSSAVVSAYKNRTYNGNIKAFEDAVQAWLKREERR
soluble fraction (log2): 0.141

HMTAQLSITLNGETRRAAAGSIADLVRSLELDPAKVAVERNGLIVPRSTLAEVALGDGDVLEIVHFV
soluble fraction (log2): -0.4

HMNLLDYTTLYVTSDGKSVSFGIAGKEIPVSYIAQEAPGTVVIDDTIRIPRKYDMEYILKRFNES
soluble fraction (log2): -1.33

HMGNKWALLVVFILNENGSTRFNQLARQIPDISTKVLSNTLQILEADGLVKRTVFPEVPIRVEYELTATGK
soluble fraction (log2): -0.987

HMQLTDSDFTRLYTYVKNSYGIDLSKKKQLISSRLTNMLIQQGYRDFTQYTDEIISGKNPEMVSAMLNRLT
soluble fraction (log2): 0.0695

HMKTGIIYGVNGPVIYLKGDTGFKISEMVYVGPEKLVGEVIGLKKHMTTVQVFEETTGLKPGETVIGTGDA
soluble fraction (log2): -0.0122

HMNIETHIVPKLLAPIRLQEYGVGIFNNIPTKSALKKALKKQLITVDKTVATTATFIKGGETIELAYQ
soluble fraction (log2): -0.299

HMDHKSALQELLAPRGLQPSYRLVEEAGPAHARVFTSEVSVDGVARGSGTGTTIKMSEQAAAREALASLG
soluble fraction (log2): 0.318

HMRLPNGYGGVTKLSGRRRKPYMVRKTIGWHIDEKTDKKVQDYVVIGYAATKSEALQMLADYNNNPFDV
soluble fraction (log2): 0.0101

HMAEATATVTASEMVVRSGPSSSYSVLGSLEKGTVVTVLAASDGIAKISYKGNTGYARIVDMELNSA
soluble fraction (log2): 0.37

HMSEQYEQIQLALKTLTQDEQDIVRLVVVEGASLRTAGKNLGVSAMTIQRRLKRALARLRDLLAS
soluble fraction (log2): -0.858

HMVLGDQTFQSASAPKVFFGGDAAYGPKNIITAVAHGHDAAVSIDRFLHGEDVSKRPGPQVNLVS
soluble fraction (log2): 0.207

HMASLSEREHDVAVLILQGKTYAEIGQAIFISPRTVEHHVASIRRRLEAKSRSDLIAKLRLTIGGTED
soluble fraction (log2): -1.15

HMLIADADSLRKQIETVLANAPNEVAAYRGGKETLMGWFVGQIMRATGGKADPKLTREILAELLQ
soluble fraction (log2): -0.126

HMREVDKRYYKINIAGTDRIFTNVYRVGDRYSAYEADKNGKPGKFLYSLSQAEIDRAVISGSFDFK
soluble fraction (log2): 0.121

HMGHLSNENAGRLLDRVLNDKIHAIMLGHLSKENNMPELAHEAVRMEITMGESRYKADDFPIYVA
soluble fraction (log2): -0.00322

HMPRNMTFAIRGEYITLDALLKAVGAADSGAQAKHRIAEGEVTVDGVVETRKTRKLRGGETVVVDDLAVVL
soluble fraction (log2): -1.4

HMQLTPAQHAILAKAIHSSDGKIEWFPDNVKGGARKKVLEGMFNRALITPDGEGWRIAAEGYDALGMPRP
soluble fraction (log2): 0.165

HMAELNLPVRKIGGEDYYYRQVKKKETIYGISKELGITKEDIIKYNPSVASGLQRNQILYFPVKDFK
soluble fraction (log2): 0.322

HMKEDFPLLEQLRYTGEGADVTGTAEKMESIQALRSAADSGGFRATLGDIQQIPGGGLRFTLSLRGSR
soluble fraction (log2): -0.226

HMGYSSKISELLTKYNMNASELAQKVGVPPTTIYSIIKRDSKKADIEVLIKIAKLFNVPVEYF
soluble fraction (log2): 0.186

HMTSHSFVITEEVGQRLDRFISDQLDTVSRTMIQKHIRSGAVVVNGKQVKSNYLLVLNDRINIALK
soluble fraction (log2): -1.22

HMLVGKSVIMKTNESSSGMIAGKVNYWENIDGKIYLGINGKLYDIADVDTVLDNDYYDKLVN
soluble fraction (log2): -1.14

HMLEIGRYNTLTVLRKVDFGYYLDGLDYGDILMPAKYAATELEAGDEVDVFIYLDSSEKLIATTETPIAQ
soluble fraction (log2): -1.58

HMKMTFGENLHKLRKIYRLSQEDVASAINLKRSDIAAVEKGDRVLNDEELDKLADFIGIDIVDLL
soluble fraction (log2): -0.853

HMHAGMKSWTIQYEKSPIYGSFLMYKDGNIYIQKEDNVVVHFPLDRFSQNDQAILKSRIEKIDQINKSS
soluble fraction (log2): -0.0137

HMYKMKDRIKKIMEMQRTTQQDFADQLKIAPATLSSIFTGRTRPTLAIVDAIKSRFPQISTDWLMFGKGDM
soluble fraction (log2): 0.22

HMTPVKAPLPGVVTKINVSVGQQVKKGENVLVLEAMKMENNIAAEADGTVSGIAVKAGDSVLEGAVLLTI
soluble fraction (log2): -0.0107

HMEQMSLISKKKGERIDKFLGENLGDLSRSYIQKLLKDGLILVNGKKVKANYKLNEGDQIDVEVPDP
soluble fraction (log2): 0.407

HMGTGADQVSWKTGDKVTHKKWGEGTVVKVSGSGNDKELDIAFPQQGVKRLLASFAPIKKVT
soluble fraction (log2): -0.0102

HMETEQVEMIRVVGMHVDEAKKALLDLGLSPEIKYEESSSYDAGTVLRASVQDGLMIDKGTNIVLTVAEA
soluble fraction (log2): -0.549

HMETLTPQEHKVLLLAVKGRTNGEIASELGIAQNTVKNHLAHIYAKMGVGNRTELASEYLRRIH
soluble fraction (log2): 0.0578

HMTKLTPLEVNLYAKKLANDPEFGSKHIEPGESFSQAEERLRVQLSQQEYVQKYSKYLKKLKASA
soluble fraction (log2): 0.0433

HMPVTKSARQSRIGELIAREPVRSQSELAARLADDGIVVSQGTLSKDLLELGAVRVRTSSGELAYALL
soluble fraction (log2): -0.258

HMTSMYYLNKAVKEGNAKAIRQLLSAGININVRKRETSTPLDFAIKYKQTEIADLLRKHGGKTAEELKAEE
soluble fraction (log2): 0.0997

HMYVKIAADAAMPYTIKRVVTDYSSAALDAAYDGSLPKWLTISSSTKDAGSGLYRHEIIYTVTAHPE
soluble fraction (log2): -0.942

HMSENPLTSREIEIVQLLANGKTTKSIAEELHLSNGTIRNYVSIVLDKLNVSNRIEAIRKALDKGWL
soluble fraction (log2): -0.0724

HMQNPDHLLALAAAAQAAIELGRPDEAEAYYRHLVEVYGVEMASQKPEYLDHSGITNDLRNVAEGFLVG
soluble fraction (log2): -1.32

HMSDVLPEAILERRLVKKGNRAVPQVLIKWTKLPATSATWEDFYVLQQRFPTALAWGQAPSPGGQM
soluble fraction (log2): -0.213

HMSKTQVKSVLDDIKGIGVVRRKALIKHFNDIEAIKAAQLAELKAVAGMDSKSAQSVYDFFHK
soluble fraction (log2): ≥ 0.43

HMTEAIDVPNLVGQNYSDVKSNSSYKFNWDIINVYDSGKPEGEIIKQEPEAGSKKVKENAVITLTVN
soluble fraction (log2): -0.0209

HMNNWRRSLEREVTASLARGDRDIFDGLNRSFEAALITKALEHTGGRRIEAATLLGIGRNTLTRKIQDLGL
soluble fraction (log2): -0.79

HMTMEQAEFLSRQFNLLSQRLNDPSIEWQDIADLRSEYTGEDEHRDTIRKGAKLFYEYLEAGWIKN
soluble fraction (log2): -0.867

HMGQGEISVPRLEGLSLRETSELLGLFGLRLEAAGSGIALSQNPPAGARVKAGDVIQVDFGEPGN
soluble fraction (log2): 0.0931

HMSPIQLKYNEYLIYIDEGKINTAEIHGNKITGKLKEGSEYVVTIYPELIASITEKLAENNVQTQLIQ
soluble fraction (log2): -0.466

HMGDFNYVMPDFRGLEAHDVSSFLNRNGFLLRPTEHEVSFTQRPGLILMHYPEPGYPFSRSSPITLVVS
soluble fraction (log2): -0.932

HMSSEPYISLPRGAAHDAYPLSTKAVAAQLGMSEVWLANLRSKGKGPRYVRVGTRVFYSPEDVAQWRRAT
soluble fraction (log2): ≥ 0.43

HMEGVSNLIVSVTRVKVTVDLSQAKVYLSIFPSEQAAFYLNALQQNRFQLKHDLSQLLKNQLRRIPTLQF
soluble fraction (log2): -0.0019

HMIKEYEVLNYVTYEYDEIKKKLEEDFGIIVLMKEAYSDETPAGIIMDQDVEQGRIFKEGATNTITFTVS
soluble fraction (log2): -1.2

HMQVSDLSAIDSLIDKVLSEQQAAVQDFRSGQGKAMGFLIGKVMQASDGKANPKVIRELMGKKLA
soluble fraction (log2): -0.0313

HMNGNLRAQVLELMGRADYEPLNKSELSRKLDLQGSDRSSLRILMDELERDHSVVRLKKGRFALKVV
soluble fraction (log2): 0.0349

HMSSASETQYELALQAMRDGDNDAALRSLSTALASGFSDWQRIDEEPLLAALANDVRFQVLRSRWK
soluble fraction (log2): -0.92

HMTGSLLVEVQGRPDADRLLGQALVDAGLTARPAGGALIEVEVRDETTPDVVRDLTVDLGLGLVRMQERH
soluble fraction (log2): -1.01

HMTIAEGLIFRFTEPFKPIDQYTYYIMGDNKVEQIPNFKTLEVMLAQRNQNYLSVRVIEKSQLDDILKEF
soluble fraction (log2): -1.73

HMYMFSGQRLKSLRKEKKMSQEKLGSLLNISKVAVSNWENAKSFPTMDNLNELAKVLEVEPHYF
soluble fraction (log2): -0.41

HMNNKSDLLFNHLRQRIATMENGTIFPSVRQLMTEYNVSQSTVSTAIRSLKELGLLEALSRQGMVVRKE
soluble fraction (log2): 0.104

HMATVGENIRRYRKAQNLSAAKLAEKVGLTQGAILHYERGIRTPGISQLEKIAHALNVSPRM
soluble fraction (log2): 0.114

HMGVAAPMPGTITDVRVKVGDRVQPRTVVMMLEAMKMENEIFAGRAGVVSQVAVEKGASVNTGDLLISIDP
soluble fraction (log2): 0.325

HMASELVSADEKYSGLVSYLLGRVVVVDQIDHAIALAKKYRYSLRIVTLDGELLSPGGSMTGGAFKNS
soluble fraction (log2): 0.2

HMEQLESAVASRTLIGQAQGVIMERYGLSAPNAFSVLSRISQDSNTKLAEVAQQIVATRRIPG
soluble fraction (log2): 0.0508

HMDGYLQLASKKNELITQLKTPPKPKRLFKDFEDRVYLITEYKVFVVSIFQNEFRLRPVNKDDFYRYTT
soluble fraction (log2): -0.134

HMSEILQLINKIDKKLEKGYTFANISRNHYEKIYKEEILNLYKTSKLKGEAEDSIKEVLESLLGDLRKP
soluble fraction (log2): 0.368
